Reference: IntAct's records for PubMed 19762560

B1: Synphilin-1 (Homo sapiens), Q9Y6H5 (parent)
chain: MEAPEYLDLDEIDFSDDISYSVTSLKTIPELCRRCDTQNEDRSVSSSSWNCGISTLITNTQKPTGIADVYSKFRPVKRVSPLKHQPETLENNESDDQKNQKVVEYQKGGESDLGPQPQELGPGDGVGGPPGKSSEPSTSLGELEHYDLDMDEILDVPYIKSSQQLASFTKVTSEKRILGLCTTINGLSGKACSTGSSESSSSNMAPFCVLSPVKSPHLRKASAVIHDQHKLSTEETEISPPLVKCGSAYEPENQSKDFLNKTFSDPHGRKVEKTTPDCQLRAFHLQSSAAESKPEEQVSGLNRTSSQGPEERSEYLKKVKSILNIVKEGQISLLPHLAADNLDKIHDENGNNLLHIAASQGHAECLQHLTSLMGEDCLNERNTEKLTPAGLAIKNGQLECVRWMVSETEAIAELSCSKDFPSLIHYAGCYGQEKILLWLLQFMQEQGISLDEVDQDGNSAVHVASQHGYLGCIQTLVEYGANVTMQNHAGEKPSQSAERQGHTLCSRYLVVVETCMSLASQVVKLTKQLKEQTVERVTLQNQLQQFLEAQKSEGKSLPSSPSSPSSPASRKSQWKSPDADDDSVAKSKPGVQEGIQVLGSLSASSRARPKAKDEDSDKILRQLLGKEISENVCTQEKLSLEFQDAQASSRNSKKIPLEKRELKLARLRQLMQRSLSESDTDSNNSEDPKTTPVRKADRPRPQPIVESVESMDSAESLHLMIKKHTLASGGRRFPFSIKASKSLDGHSPSPTSESSEPDLESQYPGSGSIPPNQPSGDPQQPSPDSTAAQKVATSPKSALKSPSSKRRTSQNLKLRVTFEEPVVQMEQPSLELNGEKDKDKGRTLQRTSTSNESGDQLKRPFGAFRSIMETLSGNQNNNNNYQAANQLKTSTLPLTSLGRKTDAKGNPASSASKGKNKAA

Variants of: B1
Settings: with syua_human SNCA

Effect of a mutation on the interaction, decreasing interaction:
K524A
V523N
A519N
K527A
